According to article PMC3991615, “The N-Terminal Domain of the Repressor of Staphylococcus aureus Phage Φ11 Possesses an Unusual Dimerization Ability and DNA Binding Affinity”:

Tests used:
[1] = target: T1, rCI (phage phi11 CI lysogenic repressor) (Staphylococcus aureus phage phi11) (UniProt Q8SDX2); experiment: EMSA; details: EMSA with ~0.1 nM 32P-DNA, 20 min on ice (0°C) unless 42°C; RNAP assay and protein storage in buffer C (10 mM Tris-HCl pH 8.0, 200 mM NaCl, 1 mM EDTA, 5% …)
T1 sequence: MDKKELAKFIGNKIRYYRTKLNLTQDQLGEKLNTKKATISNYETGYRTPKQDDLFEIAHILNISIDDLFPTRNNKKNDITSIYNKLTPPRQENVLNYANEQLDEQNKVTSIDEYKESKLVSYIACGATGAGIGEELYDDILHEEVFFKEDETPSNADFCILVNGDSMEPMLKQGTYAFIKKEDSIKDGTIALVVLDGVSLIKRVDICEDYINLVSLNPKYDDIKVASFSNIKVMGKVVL

[2] = target: T2, rNTD (N-terminal domain of phage phi11 CI repressor) (Staphylococcus aureus phage phi11) (UniProt Q8SDX2); experiment: EMSA; details: EMSA with ~0.1 nM 32P-DNA, 20 min on ice (0°C) unless 42°C; RNAP assay and protein storage in buffer C (10 mM Tris-HCl pH 8.0, 200 mM NaCl, 1 mM EDTA, 5% …)
T2 sequence: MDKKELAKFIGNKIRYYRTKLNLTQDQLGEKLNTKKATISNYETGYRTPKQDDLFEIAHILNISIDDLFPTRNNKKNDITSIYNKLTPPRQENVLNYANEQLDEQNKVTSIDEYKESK

[3] = target: T2, rNTD (N-terminal domain of phage phi11 CI repressor) (Staphylococcus aureus phage phi11); experiment: DMS footprinting; details: EMSA with ~0.1 nM 32P-DNA, 20 min on ice (0°C) unless 42°C; RNAP assay and protein storage in buffer C (10 mM Tris-HCl pH 8.0, 200 mM NaCl, 1 mM EDTA, 5% …)
[4] = target: recombinant N-terminal domain (NTD) of the Φ11 lysogenic repressor CI (Staphylococcus aureus phage Φ11); experiment: SEC; analytical gel filtration, 10 µM protein in buffer C (10 mM Tris-HCl pH 8.0, 200 mM NaCl, 1 mM EDTA, 5% glycerol) with 10 mM β-mercaptoethanol; calibrated with conalbumin, ovalbumin, carbonic anhydrase, cytochrome C
[5] = target: recombinant N-terminal domain (NTD) of the Φ11 lysogenic repressor CI (Staphylococcus aureus phage Φ11); experiment: cross-linking; glutaraldehyde (0.1%), 1-5 µM protein, products analysed by 13.5% SDS-PAGE
[6] = target: Φ11 CI with a C-terminal histidine tag (Staphylococcus aureus phage Φ11); experiment: SEC; analytical gel filtration, 10 µM protein in buffer C (10 mM Tris-HCl pH 8.0, 200 mM NaCl, 1 mM EDTA, 5% glycerol) with 10 mM β-mercaptoethanol; calibrated with conalbumin, ovalbumin, carbonic anhydrase, cytochrome C
[7] = target: Φ11 CI with a C-terminal histidine tag (Staphylococcus aureus phage Φ11); experiment: cross-linking; glutaraldehyde (0.1%), 1-5 µM protein, products analysed by 13.5% SDS-PAGE
[8] = target: T3, rNTD (N-terminal domain of phage phi11 CI repressor) (Staphylococcus aureus phage phi11, UniProt Q8SDX2 1-118); experiment: EMSA; 0°C (on ice); EMSA with ~0.1 nM 32P-DNA, 20 min on ice (0°C) unless 42°C; RNAP assay and protein storage in buffer C (10 mM Tris-HCl pH 8.0, 200 mM NaCl, 1 mM EDTA, 5% glycerol); standard EMSA buffer not printed (per refs 7, 8); native PAGE 6% or 10%; details: protein: recombinant, tags: C-terminal His6 (8 additional residues), chain copies: 2, label: 32P
T3 sequence: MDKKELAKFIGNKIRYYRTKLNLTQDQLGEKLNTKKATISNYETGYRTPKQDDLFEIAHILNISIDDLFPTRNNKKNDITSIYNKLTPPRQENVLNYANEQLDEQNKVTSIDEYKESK

[9] = target: T4, rCI (phage phi11 CI lysogenic repressor) (Staphylococcus aureus phage phi11, UniProt Q8SDX2 1-239); experiment: as above; details: protein: recombinant; tags: C-terminal His tag; chain copies: 2; label: 32P; 3' overhang 1 nt (both ends)
T4 sequence: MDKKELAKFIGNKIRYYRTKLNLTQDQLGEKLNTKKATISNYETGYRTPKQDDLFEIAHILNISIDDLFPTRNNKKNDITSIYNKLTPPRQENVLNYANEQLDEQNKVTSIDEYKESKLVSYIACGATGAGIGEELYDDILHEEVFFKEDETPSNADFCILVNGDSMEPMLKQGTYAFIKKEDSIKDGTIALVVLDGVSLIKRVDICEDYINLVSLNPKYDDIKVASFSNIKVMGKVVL

ATTCAACAAAAAAATACACGAAAAGCAAACTTTTATGTTGACTCAAGTACACGTATCGTGTATAGTAGGTTTTGTAAGCGGGAGGTGACAACATGCAATGGAATTTAATAAAGTTGAGAAAAGAAAGAAAGTGTACTCAAGAAGATTTAGGATCC (double strand) [O1O2]
binding [1]: binds | binding [2]: binds

CTCGAGCATTTTAACTACGTTTGCAGCTTGCTCGCCACGGTCGCCTTCAACGATGTCGAATTCAACTTTTTGGCCTTCTTCTAATGATTTGTATCCATCTTCAGCGATTGCTGAGAAGTGTACGAATACGTCGCTACCATCTTCTCTTTCGATGAAACCAAAACCTTTTTCTGCATTAAACCATTTAACTGTACCGTTATTCATCCATGGCATG (double strand) [cspC]
binding [2]: no binding

GGATCCTAAATCTTCTTGAGTACACTTTCTTTCTTTTCTCAACTTTATTAAATTCCATTGCATGTTGTCACCTCCCGCTTACAAAACCTACTATACACGATACGTGTACTTGAGTCAACATAAAAGTTTGCTTTTCGTGTATTTTTTTGTTGAATACCAAAAATAATTGGGTTATACTATAGGTAAATTTAAGGAGGTAAGAAAATGGATAAAAAAGAATTAGCGAAATTTATAGGCAATAAAATCAGATACTATAGAACCAAGAATTC (double strand) [O]
binding [3]: binds | binding [2]: binds

recombinant N-terminal domain (NTD) of the Φ11 lysogenic repressor CI (domain or fragment)
stoichiometry N [4]: 2 | stoichiometry N [5]: 2

Φ11 CI with a C-terminal histidine tag (natural protein)
stoichiometry N [6]: 2 | stoichiometry N [7]: 2

B1: O2 (dsDNA)
DNA 1: ATTCAACAAAAAAATACACGAAAAGCAAACTTTTATGTTGACTCAAGTA
DNA 2: TACTTGAGTCAACATAAAAGTTTGCTTTTCGTGTATTTTTTTGTTGAAT
Kd ([8]; blunt): 7.83 ± 0.44 nM

B2: O1 (dsDNA)
DNA 1: GACTCAAGTACACGTATCGTGTATAGTAGGTTTA
DNA 2: AAACCTACTATACACGATACGTGTACTTGAGTCA
Kd [9]: 3.17 ± 0.75 nM | Kd ([8]; 3' overhang 1 nt (both ends)): 3.13 ± 0.51 nM
